Where a chain is given by its changes, count along the chain named. Values joined by “and” are separate entries in the source; they are usually repeats but may differ in a detail not shown here. Equal entries are not always repeated. Blank lines part the entries; values can stand above or below the binder they belong to.
Tests used:
[1] = molecular target: T1, human CD47 on cells (human, UniProt Q08722 19-323); experiment: cell-based or functional assay
[2] = molecular target: T1, human CD47 on cells; experiment: flow cytometry, MDA-MB-231 cells
Experimental: Cells were harvested at 70-90% confluence on the day of the assay. Cells were collected by centrifugation at 200xg for 5 minutes and media was removed. Cells were resuspended at 2×10⁶ cells per mL in cold PBS. An 8-point antibody dilution series (2x concentration) was prepared in PBS to cover the expected binding affinities of the antibodies being tested. […] 50 µL per well of cell suspension was added. Plates were placed at 4° C. for 45-60 minutes.
Cells were collected by centrifugation at 400xg for 7 minutes and secondary antibody was removed. Cells were resuspended in 50 µL per well of PBS and analyzed by flow cytometry. Binding curves were calculated using the mean fluorescence intensity (MFI) of the FITC fluorescence signal on the cells.

[3] = molecular target: T2, mouse CD47 (mouse, UniProt Q61735-2 19-158, limits assumed, biotinylated); experiment: BLI (Octet), mouse CD47 on sensor; X = no mouse cross-reactivity
T2 construct: also called mCD47
T2 sequence (looked up): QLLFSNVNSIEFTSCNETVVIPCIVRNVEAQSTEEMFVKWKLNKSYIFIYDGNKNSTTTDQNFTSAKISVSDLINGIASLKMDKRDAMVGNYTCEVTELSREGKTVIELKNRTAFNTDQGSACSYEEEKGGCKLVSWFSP
Text: Mouse CD47 was obtained from Acro Biosystems (Acro Cat. No. CD7-M82E4, Acro Cat. No. CD7-M522b) and biotinylated using standard protocols. The free biotin was removed by extensive dialysis against PBS. Biotinylated antigen (CD47) was immobilized on a streptavidin sensor. The cross-reactive antibodies were identified by the association to mouse CD47 using Octet.

- IC50 [1]: 5.38 nM
- EC50 [2]: > 1000 nM
B1: Antibody C40 (antibody, human IgG1, kappa, V domains shown)
VH: EVQLVESGGGLVQPGGSLRLSCAASGFTFSYYYIHWVRQAPGKGLEWVAWIDPYGHSTTYADSVKGRFTISADTSKNTAYLQMNSLRAEDTAVYYCARGGRGAMDYWGQGTLVTAST
VL: DIQMTQSPSSLSASVGDRVTITCRASQSVSSAVAWYQQKPGKAPKLLIYSASSLYSGVPSRFSGSRSGTDFTLTISSLQPEDFATYYCQQRYSSLLTFGQGTKVEIKR
notes: Full length IgG

- binding result [3]: no binding
- IC50 [1]: 140 nM
- EC50 [2]: 200 to 1000 nM and 550 nM
B2: Antibody C59 (antibody, human IgG1, kappa, V domains shown)
VH: B1 VH with S30T, Y31S, W50Y, P53S, Y54K, G55H, H56G, S57T, T59Q, G102S
VL: B1 VL with Y92T, S93T
notes: Full length IgG
